Reference: paper PMC3248148

Target: human p23 co-chaperone (human) (UniProt Q15185)
Test: SEC; HiPrep Sephacryl S-200; each protein alone; 50mM Hepes, 150mM NaCl, 50mM KCl, 10mM MgCl2, 1mM DTT, pH 7.5; molecular weight interpolated from standards

Substance: human p23 co-chaperone (from UniProt Q15185 1-160) (natural protein)
- stoichiometry N: 2
